Data taken from US7273847B2, “Peptides with antioxidant and antimicrobial properties” (priority 2000, dated 2007).

Experiments:
LDL [1] = test: TBARS assay of copper-induced oxidation of LDL; assay type: biochemical, human; conditions: for I.C.50 (half-maximal point) for inhibition of copper-induced oxidation of LDL / Concentration of complete inhibition of LDL oxidation (to basal levels) / IC50: 10 μM Cu2+, TBARS; for I.C.50 (half-maximal point) for inhibition of copper-induced oxidation of LDL: 4 hours; for IC50: read-out: I.C.50 for inhibition of copper-induced oxidation of LDL; for TBARS LDL Malondialdehyde: mean ± S.E.M., n=3; for Concentration required to provide the same level of antioxidant protection: LDL, level of 500 μg/ml of rat serum
Experimental: Substrates for lipid oxidation included mixtures of natural and synthetic glycerophospholipids that are found in pulmonary surfactant and human LDL. The surfactant lipid mix, composed of egg phosphatidylcholine, dipalmitoylphosphatidylcholine, cholesterol and 1-oleoyl-2-linoleoyl-sn-glycero-3-phosphocholine (1:1:0.15:0.15, w/w, respectively) (Avanti Polar Lipids) in chloroform, was dried to a film under nitrogen. Following hydration in PBS or 0.15 M NaCl for 30 min, multilamellar vesicles were generated by vigorous vortexing for 5 minutes. LDL were isolated from the plasma of normal blood donors by density gradient ultracentrifugation (density=1.019-1.063 g/ml) as previously described in Qin et al., Am. J. Physiol. 274(5 Pt 2): H1836-1840 (1998), and stored in saline-EDTA. Just prior to use, EDTA was removed by dialysis against PBS, and the concentration of LDL was determined by Lowry assay (in milligrams of LDL-associated protein).
Stock solutions of 10 mM CuSO4 were freshly prepared daily. Reaction mixtures containing 1 mg/mi surfactant lipids or 150 μg/ml LDL were incubated with 10 μM CuSO4 for 24 hours or 4 hours, respectively, in the presence of putative oxidation inhibitors or controls at 37° C. in a shaking water bath in accordance with the method of Gelvan et al., Biochim. Biophys. Acta 1035(3):353-360 (1990). Control reactions which included LDL only, 10 μM CuSO4 or protein controls of bovine serum albumin (BSA), rat IgG, recombinant MBP, rat serum and human complement C1q were performed concurrently with experimental samples. Thiobarbituric acid-reactive substances (TBARS) were measured using a method adapted from Gelvan et al., Biochim. Biophys. Acta 1035(3):353-360 (1990). Samples and 0-10 μM […] standards were developed by addition of a solution composed of 0.375% thiobarbituric acid, 15% trichloroacetic acid, and 0.25N HCl at a volume ratio of 1:2, sample: developer. Following incubation at 95° C. for 30 minutes and centrifugation at 14,000 rpm for 15 minutes, an aliquot was read at 540 nm in a spectrophotometer. For continuous assessment of lipid oxidation, the accumulation of conjugated dienes during LDL oxidation was monitored spectrophotometrically in accordance with the method of Esterbauer et al., Free Rad. Med. Biol. 13, 341-390 (1992). Mixtures of 150 μg/ml LDL, 10 μM copper, and various amounts of surfactant proteins or control proteins were placed in quartz cuvettes and allowed to oxidize at room temperature over 335 minutes. Conjugated diene formation was assessed by measuring absorbance at 234 nm in a spectrophotometer.
The data are set forth graphically in FIG. 3. Various concentrations of recombinant wild type SP-A (circle), mutant SP-A containing a deletion of the collagen-like domain (square) and mutant SP-A containing only the neck and C-lectin domain (CLD) (triangle) were incubated with LDL in the presence of 10 μM Cu^2+, and lipid peroxidation was quantified by TBARS assay. Data are means, n=3-4.

LDL [2] = test: Western (immunoblot) analysis of protein carbonyl derivatives formed during copper mediated LDL oxidation; assay type: biochemical, human; conditions: SP-A 10 μg/ml, SP-D 1 μg/ml; alkylated SP-A 50 μg/ml, alkylated SP-D 10 μg/ml
Experimental: Proteins were analyzed for carbonyl modification of amino acid side groups that occur during lipid oxidation, as described in Levine et al., Methods Enzymol. 186, 464-478 (1990). Briefly, proteins that were included in reactions mixtures with LDL and 10 μM copper were derivatized to 2,4-dinitrophenylhydrazones (DNP-hydrazones) by reaction with 2,4-dinitrophenylhydrazine (DNPH), size fractionated by 8-16% SDS-PAGE under reducing conditions and electrophorectically transferred to nitrocellulose membranes (Oxyblot, Intergen). The membrane was sequentially incubated with a rabbit anti-DNP IgG and a horseradish peroxidase-conjugated goat anti-rabbit IgG. Blots were developed by HRP-dependent oxidation of a chemiluminescent substrate, and visualized using autoradiography.
To determine if the surfactant proteins act as sinks for reactive lipid intermediates, covalent modification of SP-A and SP-D during LDL oxidation was assessed using a western analysis technique that detects carbonyl adducts (Levine et al., Methods Enzymol. 186: 464-78 (1990)). As depicted by FIG. 4, oxidative modification of proteins that occurred during copper induced LDL oxidation were determined by Western analysis using an antibody to DNP-derivatized carbonyl moieties. Reaction mixtures contained LDL only, LDL+Cu^2+, LDL+Cu^2++albumin+10 μg/ml SP-A, LDL+Cu^2++albumin+1 μg/ml SP-D, LDL+Cu^2++albumin, LDL+Cu^2++albumin+50 μg/ml iodoacetamide treated SP-A, LDL+Cu^2++albumin+10 μg/ml iodoacetamide treated SP-D, 50 μg/ml albumin+50 μg/ml iodoacetamide treated SP-A, albumin+10 μg/ml iodoacetamide treated SP-D.

RAW 264.7 macrophages = test: Protection from t-BOOH induced cell death (Trypan Blue exclusion); assay type: cell-based, murine; conditions: 40 μM t-BOOH, 24 hrs; for Half maximal concentration for protection from t-BOOH-induced death: Trypan Blue
Experimental: A murine macrophage cell line (RAW 264.7) was adhered to 24-well plates (2×10^4 cells/well) in Ham's F12 media containing 10% FBS overnight at 37° C. in a 10% CO2 atmosphere. After washing, the cells were exposed to 40 μM tert-butyl hydroperoxide (t-BOOH) in serum free Ham's F12 for 24 hrs in the presence of various concentrations of the surfactant proteins. Viability was assessed for exclusion of the vital dye Trypan Blue.
Exposure of cultured mammalian cells to tert-butylhydroperoxide (t-BOOH) promotes a variety of toxic events including depletion of glutathione, mitochondrial dysfunction and peroxidation of membrane lipids, as described in Sestili et al., FEBS Lett. 457(1):139-143 (1999). To determine if SP-A and SP-D protect cells from oxidative stress, RAW 264.7 murine macrophages were exposed to 40 μM t-BOOH for 24 hrs in the presence of SP-A or SP-D at concentrations from 0.01 to 50 μg/ml. Cell death was assessed by staining cells with the vital dye Trypan Blue. As depicted by FIG. 5, RAW 264.7 macrophages were incubated with various concentrations of SP-A or SP-D and 40 μM t-BOOH. Cell viability was assessed by counting the percentage of cells that excluded the vital dye Trypan Blue. Data are mean±S.E.M., n=3 for collectins except 50 μg/ml point where n=2.

model surfactant lipids = test: AIBN-initiated lipid peroxidation of model surfactant lipids; assay type: biochemical; conditions: 3 hours incubation, with or without low concentrations of copper; preliminary data
E. coli = test: Light scattering by growing bacteria in broth (O.D. 400 nm); conditions: for Blocking of attenuation of light scattering by J5 LPS vesicles: 300 μg/ml J5 LPS vesicles, 100 μg/ml collectin

Molecule | I.C.50 (half-maximal point) for inhibition of copper-induced oxidation of LDL (LDL [1]) | Concentration of complete inhibition of LDL oxidation (to basal levels) (LDL [1]) | IC50 (LDL [1]) | TBARS LDL Malondialdehyde (LDL [1]; LDL + Cu2+ + 10 μg/ml protein) | Concentration required to provide the same level of antioxidant protection (LDL [1]) | LDL oxidation in carbonyl Western analysis (LDL [2]) | Concentration at which protection reached a plateau (RAW 264.7 macrophages) | Half maximal concentration for protection from t-BOOH-induced death (RAW 264.7 macrophages) | Inhibition of AIBN-initiated LPO (model surfactant lipids) | Blocking of attenuation of light scattering by J5 LPS vesicles (E. coli) | TBARS LDL Malondialdehyde (LDL [1]; LDL + Cu2+ + 1 μg/ml protein) | Time dependent increase in light scattering (E. coli; 100 μg/ml)
SP-A: Native surfactant protein A isolated from the alveolar wash of silica-pretreated rats | 4.75 µg/mL | 10 µg/mL | 7.9 nM | 0.0 ± 0.0 µM | 2.5 µg/mL | blocked LDL oxidation without the appearance of carbonyl-modified species | approximately 1 μg/ml | 0.52 µg/mL | did not inhibit LPO, unless copper was added at low concentrations | completely |  | 
SP-D: Native surfactant protein D from rat alveolar wash; mouse SP-D was used interchangeably with rat SP-D (protein) AEMKSLSQRSVPNTCTLVMCSPTENGLPGRDGRDGREGPRGEKGDPGLPGPMGLSGLQGPTGPVGPKGENGSAGEPGPKGERGLSGPPGLPGIPGPAGKEGPSGKQGNIGPQGKPGPKGEAGPKGEVGAPGMQGSTGAKGSTGPKGERGAPGVQGAPGNAGAAGPAGPAGPQGAPGSRGPPGLKGDRGVPGDRGIKGESGLPDSAALRQQMEALKGKLQRLEVAFSHYQKAALFPDGRSVGDKIFRTADSEKPFEDAQEMCKQAGGQLASPRSATENAAIQQLITAHNKAAFLSMTDVGTEGKFTYPTGEPLVYSNWAPGEPNNNGGAENCVEIFTNGQWNDKACGEQRLVICEF | 0.14 µg/mL | 1 µg/mL | 0.3 nM |  | 0.05 µg/mL | blocked LDL oxidation without the appearance of carbonyl-modified species | approximately 1 μg/ml | 0.56 µg/mL | did not inhibit LPO, unless copper was added at low concentrations | partially | 0.0 ± 0.0 µM | inhibited
